T1: IsdA (iron-regulated surface determinant protein A), recombinant (Staphylococcus aureus, UniProt P0C1S5 58-316)
T1 construct: also called recombinant IsdA; Isd antigen
T1 chain: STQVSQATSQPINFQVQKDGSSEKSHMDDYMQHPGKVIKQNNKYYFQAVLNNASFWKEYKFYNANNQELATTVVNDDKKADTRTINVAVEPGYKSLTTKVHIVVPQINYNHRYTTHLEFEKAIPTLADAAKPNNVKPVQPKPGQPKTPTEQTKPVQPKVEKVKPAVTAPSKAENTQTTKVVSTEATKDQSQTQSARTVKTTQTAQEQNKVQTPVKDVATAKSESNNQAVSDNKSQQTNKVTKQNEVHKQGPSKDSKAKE


Key:
Assay in all cases: ELISA on coated recombinant antigen, half-maximal binding
[1] = molecular target: T2, IsdB (iron-regulated surface determinant protein B), recombinant (Staphylococcus aureus, UniProt A6QG30 41-609)
T2 construct: also called recombinant IsdB
T2 sequence (A6QG30 41-609 limits assumed): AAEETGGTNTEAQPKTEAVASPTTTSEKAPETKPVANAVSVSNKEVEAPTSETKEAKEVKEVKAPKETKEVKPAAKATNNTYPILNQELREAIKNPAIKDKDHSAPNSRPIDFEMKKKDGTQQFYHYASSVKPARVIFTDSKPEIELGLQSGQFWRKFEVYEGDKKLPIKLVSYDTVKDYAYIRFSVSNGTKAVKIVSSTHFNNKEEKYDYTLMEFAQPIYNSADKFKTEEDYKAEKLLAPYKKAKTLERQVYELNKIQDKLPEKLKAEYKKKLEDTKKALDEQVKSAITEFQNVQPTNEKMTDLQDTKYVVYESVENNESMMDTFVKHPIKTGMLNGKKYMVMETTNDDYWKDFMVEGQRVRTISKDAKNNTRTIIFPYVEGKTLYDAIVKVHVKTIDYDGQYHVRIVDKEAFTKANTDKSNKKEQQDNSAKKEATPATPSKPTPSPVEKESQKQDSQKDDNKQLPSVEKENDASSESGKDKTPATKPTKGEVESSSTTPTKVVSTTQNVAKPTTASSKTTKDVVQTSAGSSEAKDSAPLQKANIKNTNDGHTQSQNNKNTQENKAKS

[2] = molecular target: T1, IsdA (iron-regulated surface …)
[3] = molecular target: T3, IsdH (iron-regulated surface determinant protein H), recombinant (Staphylococcus aureus)
T3 construct: also called recombinant IsdH
T3 sequence (Q2FG07 41-864): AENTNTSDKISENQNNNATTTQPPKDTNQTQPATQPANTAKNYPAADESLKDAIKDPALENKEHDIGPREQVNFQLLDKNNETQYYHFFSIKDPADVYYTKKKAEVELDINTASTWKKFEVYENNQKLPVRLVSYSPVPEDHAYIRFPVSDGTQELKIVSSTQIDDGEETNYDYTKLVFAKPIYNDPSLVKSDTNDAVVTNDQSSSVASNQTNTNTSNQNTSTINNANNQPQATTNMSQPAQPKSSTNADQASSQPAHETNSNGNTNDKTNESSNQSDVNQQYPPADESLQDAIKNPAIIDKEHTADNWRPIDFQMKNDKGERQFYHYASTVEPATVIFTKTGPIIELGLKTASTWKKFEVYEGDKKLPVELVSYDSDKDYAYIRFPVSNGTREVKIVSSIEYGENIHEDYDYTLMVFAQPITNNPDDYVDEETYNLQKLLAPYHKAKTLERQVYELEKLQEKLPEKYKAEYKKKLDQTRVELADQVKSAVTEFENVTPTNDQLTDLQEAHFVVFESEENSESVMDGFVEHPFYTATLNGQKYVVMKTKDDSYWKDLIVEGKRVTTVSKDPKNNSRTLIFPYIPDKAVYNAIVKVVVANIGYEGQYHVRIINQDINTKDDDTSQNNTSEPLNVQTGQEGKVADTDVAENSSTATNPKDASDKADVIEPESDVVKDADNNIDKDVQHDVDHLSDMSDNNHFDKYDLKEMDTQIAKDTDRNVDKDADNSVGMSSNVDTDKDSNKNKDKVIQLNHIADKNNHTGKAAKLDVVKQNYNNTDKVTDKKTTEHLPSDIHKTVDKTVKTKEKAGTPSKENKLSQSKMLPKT

| Binder | EC50 [1] [ng/mL] | EC50 [2] [ng/mL] | EC50 [3] [ng/mL] |
| --- | --- | --- | --- |
| STAU-299 (antibody, V domains shown) VH: QVTLRESGPALVKPTETVTLTCTFSGFSLSTSGMCVTWLRQPPGKALEWLALIDWEDDKYYSTSLKTRFTISKDTSKNQVVLTMTNMDPVDTATYYCARTPTYRGAFDMWGQGTLVTVSS VL: not shown | 12700 | 220 | – |
| STAU-239 (antibody, V domains shown) VH: QVQLVQSGAEVKKPGSSVKVSCRASGGPFNTYVITWVRQAPGQGLEWMGGIVPVFNTSHSAQKFQGRVKISADTSTNTVYMELTSLTFEDTAVYFCARDGAAAPLNWYDPWGQGTLVTVSS VL: SYVLTQPPSVSLAPGQTATLTCGGNNIGSKSVHWYQKKPGQAPVLVVYDVRDRPSGIPERFSGSSSENTATLTLSRVEAEDEADYYCQVWESTTSHVIFGGGTKLTVL | 1 | 70 | – |
| STAU-307 (antibody, V domains shown) VH: QVQLVQSGAEVKKTGSSVKVSCTASGATFNTNDLMWVRQAPGQGLEWMGGIVPVFGRPKYAKKFHGRLIISADEFTTTFYMELTSLTFDDTAIYYCARSGSTESPIQHIDFWGQGTLVTVSS VL: SYVLTQPPSVSVAPGQTATITCGGDNIATFSVHWYRQKPGQAPVLVVYDDLDRASGIPARFSGSNSGNTATLTISRVEPGDEADYFCQVWEISSDEYVFGPGTSVTVL | 0.28 | 10 | 0.01 |
| STAU-218 (antibody, V domains shown) VH: QVTLKESGPVVVKPTETLTLTCTVSDVSLRNVQMGVSWIRQPPGKALEWLAHIFSHDEKAYVTSLENRLTISRDTSNSQVVLTMTNMDPVDTGTYYCARIRSTSGEEEDPFAFWGQGTLVTVSS VL: DIQMTQSPSSLSASVGDRVTITCRASQSVTTWLAWYQQKPGKAPKLLIYSASSLESGVPSRFSGSGSGTDFTLTISNLQPDDFATYYCQQYRFYWTFGQGTKVESK | 4100 | 80 | – |
| STAU-281 (antibody, V domains shown) VH: QVQLVQSGAEVKRPGSSVRVSCKDSGDSFRRYVINWVRQAPGQGLEWMGGIIPIFDKAKSVQKFQDRLTITADESTSTSYMELSSLTSEDTAVYYCARKEDGRRDDVFDIWGQGTLVTVSS VL: EIVMTQSPATLSVSLGERATLSCRASHSVGSSLAWYQQKPGLAPRLLIYGVSTRATGIPARFSGSGSATEFTLTISSLQSEDLAAYHCQQYDNWPFTFGQGTKLEIK | 2 | – | 2.7 |
| STAU-389 (antibody, V domains shown) VH: QVQLVQSGAEVKQSGSSLKVSCKVSGGNLRSYGISWVRQAPGQGLEWMGVIIPIFGAPTYAQKFQGRVTFVADDGNNVVFMELSSLRSEDTAVYYCARDWPSITVAVDAINFAMDVWGQGTLVTVSS VL: QSALTQPRSVSGSPGQSVTISCTGTNNDVGSYDHVSWYQQHPGKAPKFIIYDVSTRPSGVPDRFSGSKSDNTASLTISGLQAEDEADYYCCSFAGSYTYVFGTGTTVTVL | 130 | – | 340 |
| STAU-399 (antibody, V domains shown) VH: QVQLVQSGAEVKKPGSSLKVSCKVSGGNLRSYGISWVRQAPGQGLEWMGVIIPIFGTPTYAQKFQGRVTLAADDSNNIVFMELSSLRSEDTAVYYCARDWPSITVAVDATNYGMDVWGQGTLVTVSS VL: QSALTQPRSVSGSPGQSVTISCTGTSNDVGYYDHVSWYQQHPGKAPKFIIYDVSKRPSGVPDRFSGSKSDNTASLTISGLQAEDEADYYCCSFAGSYTYVFGTGTKVTVL | 530 | 8700 | 950 |
| STAU-280 (antibody, V domains shown) VH: EVQLVESGGGLVQTGGSLRLSCAASGFTFSRYNMNWVRQAPGKGLEWVSFISATSSSIYYADSVKGRFTISRDNAKNSLDLQMNSLRDEDTAVYFCVREDAAIFGVGSWFDPWGQGTLVTVSS VL: EIVMTQSPATLSVSPGERATLSCRASQSVSSNLAWYQQKPGQAPRLLIYGASTRATGIPARFSGSGSGTEFTLTISSLQSEDFAVYFCQEYNDWPLYTFGQGTKLEIK | 7600 | 52100 | – |
| STAU-402 (antibody, V domains shown) VH: QLQLQESGPGLVKPSETLSLTCTVSGGSISSSSYYWGWIRQPPGKGLEWIGSIYYSGSTYYNPSLKSRVTISVDTSKNQFSLKLSSVTAADTAVYYCARPNSSGWSYYFDYWGQGTLVTVSS VL: QSVLTQPPSVSGAPGQRVTISCTGTSSNIGADYDVHWYQQLPGTAPKLLIYGNINRPSGVPDRFSGSRSGTSASLAITGLQADDEADYYCQSYDSSLSGSVVFGGGTKLTVL | 3400 | 8200 | – |
| STAU-401 (antibody, V domains shown) VH: QVQLVQSGPEARKPGTSVKVSCKTSGYTFSSYGIAWVRQAPGQGLEWMGWISGYSDYTIYAQRLQGRVSMTTDPYTSTAYMELRSLRPDDTAVYYCATLSFGELVENKLDFWGQGTLVTVSS VL: QSVLTQPPSVSGAPGQRVTISCTGTSSNIGADYAVHWYQQLPGTAPKLLIYGTINRPSGVPDRFSGSRSGTSASLAITGLQADDEADYYCQSYDSSLSGSVVFGGGTKLTVL | 3700 | 25100 | – |
| STAU-221 (antibody, V domains shown) VH: QVTLRESGPALVKPTQTLTLTCTFSGFSLTSSGMCVSWIRQPPGKALEWLALIDWDDDKYYITSLKTRLIISKDTSKNQVVLTMTNMDPVDTATYYCARTQSGYSGYYVDYWGQGTLVTVSS VL: not shown | 1900 | 30 | – |
| STAU-407 (antibody, V domains shown) VH: QLQLQESGPGLVKPSETLSLTCSVSGGSISRTYYYWDWIRQPPGKGLEWIGSVYYSGSTYYNPSLKSRVTMSVDTSKNLFSLKLSSVTAADTAVYYCASHESWQQLISWGQGTLVTVSS VL: QAVLTQPSSLSASPGASASLTCTLRSGINVGIYRIYWYQQKPGSPPQYLLRYKSDSDKHQGSGVPSRFSGSKDASANAGILLISGLQSEDEADYYCMIWHSSAVAFGGGTKLTVL | – | 1600 | 3100 |
| STAU-64 (antibody, V domains shown) VH: EVQLVESGGGLVKPGGSLRLSCAASGFSFSYYSMNWVRQAPGKGLEWISSISSSGEYIYYADSVKGRFTISRDNAENSLYLQMNSLRAEDTAVYYCAKVVSQQSLDYWGQGTLVTVSS VL: DIVMTQSPSSLSVSVGDRVTITCRASQSISTYLNWYQQKPGKAPKLLISGGSNLQSGVPSRFSGSGSGTDFTLTIISLQPEDFATYYCQQSYSTRYSFGQGTKLEIK | 140 | – | – |
| STAU-201 (antibody, V domains shown) VH: QVQLVQSGPEVKKPGASVKVSCKASGYTFTNYGLTWVRQAPGKGLEWIGWISPYTGRAKFALKFQGRFTLTTDTSTTTAYMEVRSLKSDDSAVYYCAREGIKDASAFDFWGQGTLVTVSS VL: QSALTQPASVSGSPGQSITISCTGTGSDIGGYNHVSWYHHYPGKAPKLLIFGVTHRPSGVSDRFSGSKSGVTAFLTISGLQAEDEADYYCSSYTDNTSWVFGGGTKVTVL | 9500 | 260 | – |
| STAU-328 (antibody, V domains shown) VH: QVQLQQWGAGLLKPSETLSLTCAVYGGSFSGYYWSWIRQPPGKGLEWIGEINHSGSTNYNPSLKSRVTISVDTSKNQFSLKLSSVTAADTAVYYCARDVGDRYYFDYWGQGTLVTVSS VL: QSALTQPASVSGSPGQSITISCTGTSSDVGSYNLVSWYQQHPGKAPKLMIYEGSKRPSGVSNRFSGSKSGNTASLTISGLQAEDEADYYCCSYAGSSTFVVFGGGTKLTVL | 80 | – | 60 |
| STAU-139 (antibody, V domains shown) VH: EVQLVQSGAEVKKPGESLKISCKGSGYSFTSYWIGWVRQMPGKGLEWMGIIYPGDSDTRYSPSFQGQVTISADKSISTAYLQWSSLKASDTAMYYCARPPGLRGDAFDIWGQGTLVTVSS VL: QSALTQPPSASGSPGQSVTISCTGTSSDVGGYNYVSWYQQHPGKAPKLMIYEVSKRPSGVPDRFSGSKSGNTASLTVSGLQAEDEADYYCSSYAGSNNLVFGGGTKLTVL | – | – | 2700 |
| STAU-229 (antibody, V domains shown) VH: EVQLVQSGAEVKKPGATMKISCKVSGYPFTDYYMHWVQQAPGKGLEWMGLIDPEDGETNYAEKFQGRVTITADTSTDTVYMELSSLRSEDTAVYFCAKPHCSSRTCQRVSGYYFGMDVWGQGTLVTVSS VL: QSALTQPPSASGSPGQSVTISCTGSSNDVGDYNFVSWYQQHPGKPPKLMIYEVTKRPSGVPDRFFGSKSGNTASLTVSGLQADDEADYYCSSYAGGNSVVFGGGTKLTVL | 10 | 700 | – |
